Test results published in patent US20260226152A1 (GlaxoSmithKline, published 2026).
Numbering of substitutions follows the chain as printed. Like-named read-outs stand apart in the source and are kept apart here.

What was measured:
Human IL-18 [1] = target: T1, Human IL-18 (human, UniProt Q14116 37-193); test: cell-based or functional assay
T1 sequence: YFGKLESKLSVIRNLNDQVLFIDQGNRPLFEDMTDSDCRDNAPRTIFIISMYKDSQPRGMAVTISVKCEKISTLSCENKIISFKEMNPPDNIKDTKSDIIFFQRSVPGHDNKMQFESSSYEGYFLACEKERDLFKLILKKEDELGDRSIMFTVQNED

Human IL-18 [2] = target: T1, Human IL-18; test: cell-based or functional assay; remark: listed apart in the source
Human IL-23 [3] = target: T2, Human IL-23 (human, UniProt Q9NPF7 20-189; P29460 23-328); test: cell-based or functional assay
T2 sequence 1: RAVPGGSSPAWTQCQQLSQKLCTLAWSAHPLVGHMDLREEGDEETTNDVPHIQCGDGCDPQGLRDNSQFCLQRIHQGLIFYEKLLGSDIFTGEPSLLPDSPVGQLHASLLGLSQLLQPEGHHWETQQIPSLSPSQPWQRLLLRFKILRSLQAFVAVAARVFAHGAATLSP
T2 sequence 2: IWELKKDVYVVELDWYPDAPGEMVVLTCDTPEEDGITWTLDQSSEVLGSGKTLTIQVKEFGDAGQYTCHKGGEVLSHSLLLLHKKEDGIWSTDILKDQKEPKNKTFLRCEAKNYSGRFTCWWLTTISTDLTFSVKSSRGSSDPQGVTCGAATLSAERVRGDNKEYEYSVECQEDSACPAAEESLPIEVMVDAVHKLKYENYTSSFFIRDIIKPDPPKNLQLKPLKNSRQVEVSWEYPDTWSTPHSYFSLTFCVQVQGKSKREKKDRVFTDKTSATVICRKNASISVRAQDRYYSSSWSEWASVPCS

Human IL-23 [4] = target: T2, Human IL-23; test: cell-based or functional assay; remark: listed apart in the source
Cynomolgus monkey IL-18 [5] = target: T3, Cynomolgus monkey IL-18 (Rhesus monkey (identical to cynomolgus …, UniProt Q9BGI5 37-193)); test: cell-based or functional assay
T3 sequence: T1 sequence with V11I, S50N, T63A, K79R, F134Y, E141K

Human IL-23 [6] = target: T2, Human IL-23; test: cell-based or functional assay; remark: listed apart in the source
Cynomolgus monkey IL-23 = target: T4, Cynomolgus monkey IL-23 (cynomolgus monkey); test: SPR (Biacore 8K/T200), antibody captured on Protein A/G, cytokine as analyte, 25 C, geometric mean of n=3-5
T4 construct: also called Cyno IL-23
Protocol: (§1) A heterodimeric bsAb, alongside anti-IL-18 and anti-IL-23 common light chain control bispecific antibodies, were assessed for binding to human and cyno IL-18 and IL-23, using the Biacore 8K and T200 (Cytiva) surface plasmon resonance (SPR) instruments. All reagents were generated recombinantly in-house with the exception of Rhesus monkey IL-18 which was purchased from R&D systems (Cat #2548-RM-025/CF). Rhesus and cynomolgus monkey amino acid sequences are identical. Therefore, the protein will be referred to as cynomolgus monkey IL-18.
(§2) Heterodimeric bsAb, anti-IL-18 and anti-IL-23 common light chain bispecific control molecules were assessed for binding to recombinant human and cynomolgus monkey IL-18 and IL-23 using the Biacore 8K and T200 (Cytiva) SPR instruments. The antibodies were captured onto Protein A/G, which was immobilised onto flow cell 2 of 8 channels (Biacore 8K) or flow cells 2, 3 and 4 (Biacore T200) of a CM5 series S sensor chip by primary amine coupling. The IL-18 or IL-23 analytes were passed over the captured antibodies at varying concentrations between 0.04-25 nM. The association phase was for 240 seconds at 30 μl/min, followed by a dissociation step of up to 1200 seconds. A 0 nM (i.e., buffer alone) injection was used to double reference the binding curves. Regeneration of the chip surface between cycles was carried out using 50 mM NaOH. The assay was run at 25° C. in HBS-EP⁺ buffer. Biacore 8K control software version 3.0 was used to run the experiment. Data was analysed using Biacore 8K Insight evaluation software version 3.0. Biacore T200 control software version 1.0 was used to run the experiment. Data was analysed using Biacore T200 evaluation software version 2.0. Affinities and kinetics were determined using the 1:1 kinetic fit inherent to the software where possible. All affinity values generated using both instruments were combined to determine geometric mean values.

Human IL-18 [7] = target: T1, Human IL-18; test: as above
Protocol: as §1, §2

Cynomolgus monkey IL-18 [8] = target: T3, Cynomolgus monkey IL-18; test: as above
Protocol: as §1, §2

Human IL-23 [9] = target: T2, Human IL-23; test: as above
Protocol: as §1, §2

Human IL-18 [10] = target: T1, Human IL-18; test: cell-based or functional assay; remark: listed apart in the source
Human IL-18 [11] = target: T1, Human IL-18; test: SPR (Biacore), antibody captured on Protein A/G, cytokine as analyte, 25 C, 1:1 fit, n=1
Protocol: as §1, §2

Human IL-23 [12] = target: T2, Human IL-23; test: SPR (Biacore), antibody captured on Protein A/G, cytokine as analyte, 25 C
Protocol: as §1, §2

B1: Heterodimeric bsAb 4 (bispecific antibody, human IgG1, kappa)
heavy 1: QVQLVQSGAEVKKPGSSVKVSCKASGYTFTDQTIHWMRQAPGQGLEWIGYIYPRDDSPKYNENFKGKVTITADKSTSTAYMELSSLRSEDTAVYYCAIPDRSGYAWFIYWGQGTLVTVSSASTKGPSVFPLAPSSKSTSGGTAALGCRVKDYFPEPVTVSWNSGALTSGVHTFPAVLQSSGLYSLSSVVTVPSSSLGTQTYICNVNHKPSNTKVDKKVEPKSCDKTHTCPPCPAPELAGAPSVFLFPPKPKDTLYITREPEVTCVVVDVSHEDPEVKFNWYVDGVEVHNAKTKPREEQYNSTYRVVSVLTVLHQDWLNGKEYKCKVSNKALPAPIEKTISKAKGQPREPQVYVYPPSRDELTKNQVSLTCLVKGFYPSDIAVEWESNGQPENNYKTTPPVLDSDGSFALVSKLTVDKSRWQQGNVFSCSVMHEALHNHYTQKSLSLSPGK
light 1: DIQMTQSPSSLSASVGDRVTITCKASRDVAIAVAWYQQKPGKVPKLLIYWASTRHTGVPSRFSGSGSRTDFTLTISSLQPEDVADYFCHQYSSYPFTFGSGTKLEIKRTVAAPSVFIFPPSDEELKSGTASVECLLNNFYPREAKVQWKVDNALQSGNSQESVTEQDSKDSTYSLSSTLTLSKADYEKHKVYACEVTHQGLSSPVTKSFNRGEC
heavy 2: QVQLVQSGAEVKKPGASVKVSCKVSGEISTGYYFHWVRQAPGKGLEWMGRIDPEDDSTKYAERFKDRVTMTEDTSTDTAYMELSSLRSEDTAVYYCTTWRIYRDSSGRPFYVMDAWGQGTLVTVSSASTKGPSVFPLAPSSKSTSGGTAALGCEVTDYFPEPVTVSWNSGALTSGVHTFPAVLESSGLYSLSSVVTVPSSSLGTQTYICNVNHKPSNTKVDKKVEPKSCDKTHTCPPCPAPELAGAPSVFLFPPKPKDTLYITREPEVTCVVVDVSHEDPEVKFNWYVDGVEVHNAKTKPREEQYNSTYRVVSVLTVLHQDWLNGKEYKCKVSNKALPAPIEKTISKAKGQPREPQVYVLPPSRDELTKNQVSLLCLVKGFYPSDIAVEWESNGQPENNYLTWPPVLDSDGSFFLYSKLTVDKSRWQQGNVFSCSVMHEALHNHYTQKSLSLSPGK
light 2: DIQMTQSPSSVSASVGDRVTITCLASEDIYTYLTWYQQKPGKAPKLLIYGANKLQDGVPSRFSGSGSGTDYTLTISSLQPEDFATYYCLQGSKFPLTFGQGTKLEIKRTVAAPSVFIFPPSDERLKSGTASVVCLLNNFYPREAKVQWKVDNALQSGNSQESVTEQDSKDSTYSLSSRLTLSKADYEKHKVYACEVTHQGLSSPVTKSFNRGEC
notes: Het-mAb format: anti-IL-23 mAb (risankizumab) on ZA and anti-IL-18 mAb on ZB, with Fc heterodimerisation, silencing and half-life extending mutations; Stably expressed in CHO cells; also called anti-IL-23xIL-18 HETmAb
Fold change (from IL-18 control 1) of IC50, LPS + IL12-induced IFN-γ in human whole blood (Human IL-18 [1]): 1.9 fold
IC50 nM, inhibition of LPS + IL12-induced IFN-γ in human whole blood (Human IL-18 [1]): 10.5 nM
pIC50, inhibition of LPS + IL12-induced IFN-γ in human whole blood (Human IL-18 [1]): 8
IC50 (pM, Mean), neutralisation of human IL-18-induced IFNγ secretion by KG-1 cells (Human IL-18 [2]): 115 pM
pIC50 (GeoMean), neutralisation of human IL-18-induced IFNγ secretion by KG-1 cells (Human IL-18 [2]): 9.94
IC50 pM (Geomean), neutralisation of human IL-23-induced pSTAT3 in DB cells (MSD) (Human IL-23 [3]): 58.9 pM
pIC50 (Geomean), neutralisation of human IL-23-induced pSTAT3 in DB cells (MSD) (Human IL-23 [3]): 10.2
Fold change (from anti-IL-23, IL-23 control 1) of IC50, IL-23-induced mouse IL-17A in mouse splenocytes (Human IL-23 [4]): 2.67 fold
IC50 pM, inhibition of human IL-23-induced mouse IL-17A secretion in mouse splenocytes (Human IL-23 [4]): 111 pM
pIC50 (M), inhibition of human IL-23-induced mouse IL-17A secretion in mouse splenocytes (Human IL-23 [4]): 10
IC50 (pM, Mean), neutralisation of cynomolgus IL-18-induced IFNγ secretion by KG-1 cells (Cynomolgus monkey IL-18 [5]): 97.7 pM
pIC50 (GeoMean), neutralisation of cynomolgus IL-18-induced IFNγ secretion by KG-1 cells (Cynomolgus monkey IL-18 [5]): 10
Fold change (from anti-IL-23, IL-23 control 1) of IC50, IL-23-induced pSTAT3 in T cells of human whole blood (Human IL-23 [6]): 2.42 fold
IC50, inhibition of IL-23-induced pSTAT3 in T cells of human whole blood (Human IL-23 [6]): 395 pM
pIC50, inhibition of IL-23-induced pSTAT3 in T cells of human whole blood (Human IL-23 [6]): 9.4
Kd (Cynomolgus monkey IL-23): 0.162 nM
Kd (Human IL-18 [7]): 0.035 nM
Kd (Cynomolgus monkey IL-18 [8]): 0.068 nM
Kd (Human IL-23 [9]): 0.297 nM

B2: IL-18 control 5 (antibody, V domains shown)
VH: QVQLVQSGAEVKKPGASVKVSCKVSGEISTGYYFHWVRQAPGKGLEWMGRIDPEDDSTKYAERFKDRVTMTEDTSTDTAYMELSSLRSEDTAVYYCTTWRIYRDSSGRPFYVMDAWGQGTLVTVSS
VL: DIQMTQSPSSVSASVGDRVTITCLASEDIYTYLTWYQQKPGKAPKLLIYGANKLQDGVPSRFSGSGSGTDYTLTISSLQPEDFATYYCLQGSKFPLTFGQGTKLEIK
notes: Anti-IL-18 mAb plus Het-mAb Fc mutations of Heterodimeric bsAbs 1-4 and silencing (LAGA) mutations
IC50 (pM, Mean), neutralisation of human IL-18-induced IFNγ secretion by KG-1 cells (Human IL-18 [10]): 52.5 pM
pIC50 (GeoMean), neutralisation of human IL-18-induced IFNγ secretion by KG-1 cells (Human IL-18 [10]): 10.3
Kd (Human IL-18 [11]): < 0.01 nM
binding result (Human IL-23 [12]): no binding (tested: 0.04-25 nM analyte)

B3: IL-18 control 1 (antibody, V domains shown)
VH: B2 VH
VL: B2 VL
notes: Anti-IL-18 mAb plus Het-mAb Fc mutations of Heterodimeric bsAbs 1-4, silencing (LAGA) and half-life extending (YTE) mutations; also called anti-IL-18 control 1
IC50 nM, inhibition of LPS + IL12-induced IFN-γ in human whole blood (Human IL-18 [1]): 5.5 nM
pIC50, inhibition of LPS + IL12-induced IFN-γ in human whole blood (Human IL-18 [1]): 8.3
IC50 (pM, Mean), neutralisation of human IL-18-induced IFNγ secretion by KG-1 cells (Human IL-18 [2]): 52.5 pM
pIC50 (GeoMean), neutralisation of human IL-18-induced IFNγ secretion by KG-1 cells (Human IL-18 [2]): 10.3
IC50 (pM, Mean), neutralisation of cynomolgus IL-18-induced IFNγ secretion by KG-1 cells (Cynomolgus monkey IL-18 [5]): 53.7 pM
pIC50 (GeoMean), neutralisation of cynomolgus IL-18-induced IFNγ secretion by KG-1 cells (Cynomolgus monkey IL-18 [5]): 10.3
binding result (Human IL-23 [12]): no binding (tested: 0.04-25 nM analyte)
Kd (Human IL-18 [7]): 0.067 nM
Kd (Cynomolgus monkey IL-18 [8]): 0.064 nM
